This note sets out measurements from patent publication US20150307628A1.

Assay [1] addresses dummy-Fc heavy chain constant region with CH3B of mutant EW-RVT (S-S) (Q347R/S354C/D399V/F405T) (human) [IgG part: P0DOX5]. In words: non-reducing SDS-PAGE, EW-RVT (S-S) against EW-RVT.
Assay [2] has as its target dummy-Fc heavy chain constant region with CH3B of mutant SW-WVT (S-S) (Y349C/E357W/D399V/F405T) (human) [IgG part: P0DOX5]. Nature of the assay: non-reducing SDS-PAGE, SW-WVT (S-S) against SW-WVT.

“hAY4a scFv-Fc heavy chain with CH3A of mutant EW-RVT (S-S) (Y349C/K360E/K409W) (from UniProt P0DOX5 227-449) (Fc fusion)”: in assay [1], the greater heterodimer formability than the variant without disulfide bridge stood at 3%.

In turn, “hAY4a scFv-Fc heavy chain with CH3A of mutant SW-WVT (S-S) (Y349S/S354C/K409W) (from UniProt P0DOX5 227-449) (Fc fusion)” gave a greater heterodimer formability than the variant without disulfide bridge in assay [2] of 9%.
